Where “and” joins values, the source holds several entries; their conditions need not be identical. Identical values can stand only once. Bridges are numbered along the chain shown (N, C = ends). Roman numbers before positions name the chains, in order. Where no end group is shown, it is not given here.
T1: Nrp1 (Nrp1-b1b2) / VEGF-A binding (Homo sapiens, UniProt O14786)
T1 sequence (O14786 274-586): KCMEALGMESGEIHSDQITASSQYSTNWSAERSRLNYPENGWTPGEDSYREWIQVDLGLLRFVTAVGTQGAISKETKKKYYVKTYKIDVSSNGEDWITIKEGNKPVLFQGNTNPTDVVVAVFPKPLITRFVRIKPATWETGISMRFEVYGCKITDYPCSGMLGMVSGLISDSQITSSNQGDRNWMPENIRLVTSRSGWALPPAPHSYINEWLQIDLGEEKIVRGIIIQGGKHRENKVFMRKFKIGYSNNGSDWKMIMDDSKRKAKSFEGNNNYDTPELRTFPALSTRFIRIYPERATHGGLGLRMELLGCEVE

T2: Nrp1-b1b2 (residue 274 to 586) (UniProt O14786 274-586)
T2 sequence (looked up): T1 sequence (O14786 274-586)

B1: Sema3A.3, furin processed variant of the Sema3A C-terminal domain (peptide)
chain: NTMDEFCEQVWKRDRKQRRQRPGHTPGNSNKWKHLQENKKGRNRRTHEFERAPR

Biological target: T1, Nrp1 (Nrp1-b1b2) / VEGF-A binding
Assay: Plate-based inhibition of AP-VEGF-A binding to Nrp1
Conditions: comparison of IC50 values, in words

“I: CQGYWRHVPPSPREAPGAPRSPEPDQKKPRNRR-OH / II: CQGYWRHVPPSPREAPGAPRSPEPDQKKPRNRR-OH (disulfide I:1-II:1) [ΔN-C-furSema]” was tested, and the “potency relative to C-furSema in inhibiting VEGF-A binding to Nrp1” value was “approximately five-fold less potent”.

Biological target: T2, Nrp1-b1b2 (residue 274 to 586)
Assay: plate-based competition assay with alkaline phosphatase fused ligand
Conditions: not given

Point of comparison: GLIHQYCQGYWRHVPPSPREAPGAPRSPEPDQKKPRNRA (also: homodimer, intermolecular disulfide Cys7-Cys7) [C-furSema R779A], IC50 4500 nM. Against it:
- B1 — 170-fold lower, 27 nM
- NTMDEFCEQVWKRDRKQR [Sema3A.1, shortest furin processed variant of the Sema3A C-terminal domain] — 4.1-fold lower, 1100 nM
- GLIHQYSQGYWRHVPPSPREAPGAPRSPEPDQKKPRNRR [monomeric C-furSema^Mon] — 3.5-fold lower, 1300 nM
- NTMDEFCEQVWKRDRKQRRQRPGHTPGNSNKWKHLQENKKGRNRR [Sema3A.2, furin processed variant of the Sema3A C-terminal domain] — 100-fold lower, 45 nM
- CQGYWRHVPPSPREAPGAPRSPEPDQKKPRNRR [ΔN-C-furSema] — 41-fold lower, 111 nM

For GLIHQYCQGYWRHVPPSPREAPGAPRSPEPDQKKPRNRR (also: homodimer) [furin-processed C-terminal domain of Sema3F (C-furSema), homodimeric], the IC50 was 25 nM and 24 nM.
